Data taken from doi:10.1101/2023.03.13.532366.

Target: biotinylated mIL-12 (mIL-12a-AviTag-His6 and untagged mIL-12b) (mouse) (UniProt P43431)
Assay: BLI

biotinylated mIL-12 (mIL-12a-AviTag-His6 and untagged mIL-12b) (mouse), sequence (P43431 23-215, chain 1 of 2): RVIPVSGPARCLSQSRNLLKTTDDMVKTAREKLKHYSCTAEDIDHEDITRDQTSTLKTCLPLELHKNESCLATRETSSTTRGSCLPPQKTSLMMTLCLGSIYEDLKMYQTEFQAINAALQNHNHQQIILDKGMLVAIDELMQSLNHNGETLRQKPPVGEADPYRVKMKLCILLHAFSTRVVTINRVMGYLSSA
biotinylated mIL-12 (mIL-12a-AviTag-His6 and untagged mIL-12b) (mouse), sequence (P43432 23-335, chain 2 of 2, further chain): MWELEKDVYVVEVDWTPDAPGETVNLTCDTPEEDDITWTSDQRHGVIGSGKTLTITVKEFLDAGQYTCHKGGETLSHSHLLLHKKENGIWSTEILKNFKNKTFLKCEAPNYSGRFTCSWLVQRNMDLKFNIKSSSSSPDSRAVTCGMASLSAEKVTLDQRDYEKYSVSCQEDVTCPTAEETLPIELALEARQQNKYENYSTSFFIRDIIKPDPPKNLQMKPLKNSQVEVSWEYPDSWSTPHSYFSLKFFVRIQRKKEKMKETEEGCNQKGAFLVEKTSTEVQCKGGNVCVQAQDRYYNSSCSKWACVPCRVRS
mIL-12Rβ1_(D1-D2) (from mIL-12Rβ1_(D1-D2)-CASP3-AviTag-His6), analyte in BLI (domain or fragment), sequence (Q60837 20-738): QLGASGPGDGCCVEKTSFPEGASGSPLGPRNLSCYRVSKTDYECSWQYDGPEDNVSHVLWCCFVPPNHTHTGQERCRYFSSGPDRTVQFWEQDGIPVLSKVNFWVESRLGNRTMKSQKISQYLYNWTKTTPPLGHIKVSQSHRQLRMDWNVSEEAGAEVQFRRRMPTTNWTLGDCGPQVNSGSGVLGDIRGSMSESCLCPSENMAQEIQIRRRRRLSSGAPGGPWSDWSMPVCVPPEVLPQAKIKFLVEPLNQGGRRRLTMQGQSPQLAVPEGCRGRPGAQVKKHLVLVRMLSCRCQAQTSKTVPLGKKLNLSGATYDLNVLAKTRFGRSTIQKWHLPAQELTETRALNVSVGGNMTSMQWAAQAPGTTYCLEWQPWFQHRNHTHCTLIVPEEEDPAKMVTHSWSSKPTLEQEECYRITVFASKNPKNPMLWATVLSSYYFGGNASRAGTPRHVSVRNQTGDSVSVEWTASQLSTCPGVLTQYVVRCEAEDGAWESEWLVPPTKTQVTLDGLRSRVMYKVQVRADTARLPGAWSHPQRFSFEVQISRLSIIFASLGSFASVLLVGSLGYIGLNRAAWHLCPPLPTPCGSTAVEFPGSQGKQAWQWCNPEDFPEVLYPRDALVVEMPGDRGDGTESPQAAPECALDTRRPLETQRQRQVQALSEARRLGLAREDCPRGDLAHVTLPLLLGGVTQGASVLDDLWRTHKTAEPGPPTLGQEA

In the case of “mIL-12Rβ1_(D1-D2) (from mIL-12Rβ1_(D1-D2)-CASP3-AviTag-His6), analyte in BLI (domain or fragment)”, the fold higher affinity than the human counterparts (hIL-12 for hIL-12Rβ1) is reported as 10 fold.
